Results from patent publication US20080235826.

Tests used:
[1] = molecular target: T1, purified oat phytochrome A, autophosphorylated (UniProt P06593)
T1 sequence: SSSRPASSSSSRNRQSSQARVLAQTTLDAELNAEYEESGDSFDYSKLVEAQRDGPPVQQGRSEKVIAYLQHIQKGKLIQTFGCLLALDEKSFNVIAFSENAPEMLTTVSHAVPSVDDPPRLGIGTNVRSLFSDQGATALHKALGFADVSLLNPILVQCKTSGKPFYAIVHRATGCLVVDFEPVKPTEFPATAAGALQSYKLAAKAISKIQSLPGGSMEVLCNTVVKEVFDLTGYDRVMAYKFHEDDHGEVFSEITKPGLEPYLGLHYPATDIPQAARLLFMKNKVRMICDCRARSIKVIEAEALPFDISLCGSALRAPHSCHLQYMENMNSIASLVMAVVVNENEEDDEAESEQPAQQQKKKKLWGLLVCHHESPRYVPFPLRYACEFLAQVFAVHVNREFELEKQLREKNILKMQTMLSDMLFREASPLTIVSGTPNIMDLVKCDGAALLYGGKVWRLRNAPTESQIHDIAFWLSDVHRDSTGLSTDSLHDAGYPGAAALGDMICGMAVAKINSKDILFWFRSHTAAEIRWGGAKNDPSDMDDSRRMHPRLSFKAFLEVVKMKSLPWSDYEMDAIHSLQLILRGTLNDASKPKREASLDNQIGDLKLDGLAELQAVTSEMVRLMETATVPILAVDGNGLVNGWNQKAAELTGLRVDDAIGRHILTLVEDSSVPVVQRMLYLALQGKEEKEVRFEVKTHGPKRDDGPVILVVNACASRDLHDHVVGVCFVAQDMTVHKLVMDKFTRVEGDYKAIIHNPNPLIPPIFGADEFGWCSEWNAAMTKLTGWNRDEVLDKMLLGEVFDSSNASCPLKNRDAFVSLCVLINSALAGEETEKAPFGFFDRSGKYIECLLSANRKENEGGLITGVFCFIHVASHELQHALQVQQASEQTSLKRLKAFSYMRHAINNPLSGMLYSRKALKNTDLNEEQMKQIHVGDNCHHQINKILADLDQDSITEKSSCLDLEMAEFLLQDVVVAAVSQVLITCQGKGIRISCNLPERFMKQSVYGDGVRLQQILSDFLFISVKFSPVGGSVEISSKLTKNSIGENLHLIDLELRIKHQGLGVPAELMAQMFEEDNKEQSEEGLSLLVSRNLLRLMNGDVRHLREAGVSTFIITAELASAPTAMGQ

[2] = molecular target: T2, purified oat phytochrome A, autophosphorylated, P06593
T2 chain: T1 sequence

[3] = molecular target: T3, Arabidopsis thaliana phytochrome A (PHYA), full-length, yeast two-hybrid fusion
T3 chain: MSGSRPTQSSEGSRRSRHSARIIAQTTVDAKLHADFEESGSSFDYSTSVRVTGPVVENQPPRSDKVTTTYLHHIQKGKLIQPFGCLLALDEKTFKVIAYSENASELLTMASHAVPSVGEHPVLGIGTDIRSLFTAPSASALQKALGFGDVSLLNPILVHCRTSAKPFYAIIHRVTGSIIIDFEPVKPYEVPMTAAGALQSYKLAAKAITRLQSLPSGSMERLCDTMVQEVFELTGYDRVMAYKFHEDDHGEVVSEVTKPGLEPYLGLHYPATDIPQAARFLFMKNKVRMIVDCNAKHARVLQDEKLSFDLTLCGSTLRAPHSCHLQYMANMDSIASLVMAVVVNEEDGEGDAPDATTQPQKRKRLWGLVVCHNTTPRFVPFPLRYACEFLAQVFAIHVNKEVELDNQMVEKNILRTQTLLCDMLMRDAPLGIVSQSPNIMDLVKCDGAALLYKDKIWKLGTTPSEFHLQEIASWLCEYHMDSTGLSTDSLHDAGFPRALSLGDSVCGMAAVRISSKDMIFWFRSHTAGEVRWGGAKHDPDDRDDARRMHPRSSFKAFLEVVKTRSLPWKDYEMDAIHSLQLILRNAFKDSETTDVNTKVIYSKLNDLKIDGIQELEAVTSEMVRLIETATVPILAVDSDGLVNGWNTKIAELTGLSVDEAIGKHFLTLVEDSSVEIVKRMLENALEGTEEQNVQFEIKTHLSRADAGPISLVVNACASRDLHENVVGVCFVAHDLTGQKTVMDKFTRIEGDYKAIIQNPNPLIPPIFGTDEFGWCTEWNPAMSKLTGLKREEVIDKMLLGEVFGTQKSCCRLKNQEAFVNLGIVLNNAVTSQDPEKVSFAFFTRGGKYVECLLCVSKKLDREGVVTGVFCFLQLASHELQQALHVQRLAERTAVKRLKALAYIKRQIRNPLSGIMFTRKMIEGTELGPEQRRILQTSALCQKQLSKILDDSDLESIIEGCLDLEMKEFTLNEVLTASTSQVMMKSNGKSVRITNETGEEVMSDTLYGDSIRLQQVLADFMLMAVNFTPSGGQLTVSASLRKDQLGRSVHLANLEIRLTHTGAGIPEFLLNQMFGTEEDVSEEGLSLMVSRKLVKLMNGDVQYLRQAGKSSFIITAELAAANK

[4] = molecular target: Arabidopsis thaliana phytochrome B (PHYB), full-length, yeast two-hybrid bait in pGilda, P14713
Sequence of Arabidopsis thaliana phytochrome B (PHYB), full-length, yeast two-hybrid bait in pGilda, P14713 (P14713 whole entry): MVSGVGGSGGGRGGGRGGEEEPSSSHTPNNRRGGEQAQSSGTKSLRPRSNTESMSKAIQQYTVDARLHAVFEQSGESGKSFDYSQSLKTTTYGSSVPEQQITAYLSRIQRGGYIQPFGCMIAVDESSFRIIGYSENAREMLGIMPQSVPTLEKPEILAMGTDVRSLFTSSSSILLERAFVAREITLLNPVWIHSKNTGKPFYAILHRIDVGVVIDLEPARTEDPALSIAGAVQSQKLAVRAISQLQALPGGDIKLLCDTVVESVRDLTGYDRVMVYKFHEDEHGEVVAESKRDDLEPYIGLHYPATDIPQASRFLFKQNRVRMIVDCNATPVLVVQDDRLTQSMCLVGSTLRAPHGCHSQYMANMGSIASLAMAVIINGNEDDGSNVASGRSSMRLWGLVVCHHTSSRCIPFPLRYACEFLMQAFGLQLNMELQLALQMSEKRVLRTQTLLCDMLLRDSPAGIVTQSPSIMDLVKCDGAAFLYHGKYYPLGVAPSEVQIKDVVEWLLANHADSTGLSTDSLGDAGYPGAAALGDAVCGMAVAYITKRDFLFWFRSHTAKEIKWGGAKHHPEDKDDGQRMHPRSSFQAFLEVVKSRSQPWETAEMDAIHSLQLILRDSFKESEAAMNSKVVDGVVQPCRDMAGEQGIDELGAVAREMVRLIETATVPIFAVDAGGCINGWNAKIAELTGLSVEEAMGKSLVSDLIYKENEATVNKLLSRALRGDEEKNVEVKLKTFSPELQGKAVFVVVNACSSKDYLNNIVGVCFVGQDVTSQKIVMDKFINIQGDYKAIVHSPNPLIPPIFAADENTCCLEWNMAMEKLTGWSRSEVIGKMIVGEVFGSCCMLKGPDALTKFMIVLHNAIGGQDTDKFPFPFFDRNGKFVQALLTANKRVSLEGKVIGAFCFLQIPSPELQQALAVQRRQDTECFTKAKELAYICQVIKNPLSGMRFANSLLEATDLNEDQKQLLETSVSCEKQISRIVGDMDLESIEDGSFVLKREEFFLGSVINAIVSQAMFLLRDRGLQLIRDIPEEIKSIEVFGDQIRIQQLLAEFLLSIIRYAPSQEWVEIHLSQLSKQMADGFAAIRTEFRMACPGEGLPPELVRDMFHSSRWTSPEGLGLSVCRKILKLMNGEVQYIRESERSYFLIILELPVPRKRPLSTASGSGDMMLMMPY

Molecule: GST-PP2Ac (fusion protein of GST and the PP2A catalytic domain of PAPP5, with a deletion of amino acids 1-138 of SEQ ID NO: 4)
- dephosphorylation of autophosphorylated oat Pfr phytochrome A (32P autoradiography) [1]: the level of dephosphorylation was very low

B1: GST-PAPP5 fusion protein (glutathione-S-transferase fused to full-length PAPP5) (protein)
chain: METKNENSDVSRAEEFKSQANEAFKGHKYSSAIDLYTKAIELNSNNAVYWANRAFAHTKLEEYGSAIQDASKAIEVDSRYSKGYYRRGAAYLAMGKFKDALKDFQQVKRLSPNDPDATRKLKECEKAVMKLKFEEAISVPVSERRSVAESIDFHTIEVEPQYSGARIEGEEVTLDFVKTMMEDFKNQKTLHKRYAYQIVLQTRQILLALPSLVDISVPHGKHITVCGDVHGQFYDLLNIFELNGLPSEENPYLFNGDFVDRGSFSVEIILTLFAFKCMCPSSIYLARGNHESKSMNKIYGFEGEVRSKLSEKFVDLFAEVFCYLPLAHVINGKVFVVHGGLFSVDGVKLSDIRAIDRFCEPPEEGLMCELLWSDPQPLPGRGPSKRGVGLSFGGDVTKRFLQDNNLDLLVRSHEVKDEGYEVEHDGKLITVFSAPNYCDQMGNKGAFIRFEAPDMKPNIVTFSAVPHPDVKPMAYANNFLRMFN
- dephosphorylation of autophosphorylated oat Pfr phytochrome A (32P autoradiography) [2]: only GST-PAPP5 dephosphorylated the autophosphorylated oat Pfr phytochrome A by about 80%
- dephosphorylation of autophosphorylated oat phytochrome A according to its light absorption form [2]: the dephosphorylation by PAPP5 was higher in Pfr phytochrome than that in Pf phytochrome

B2: B42-PP2Ac (TPR domain-deleted PP2A catalytic domain of PAPP5, yeast two-hybrid prey) (protein)
chain: VPVSERRSVAESIDFHTIEVEPQYSGARIEGEEVTLDFVKTMMEDFKNQKTLHKRYAYQIVLQTRQILLALPSLVDISVPHGKHITVCGDVHGQFYDLLNIFELNGLPSEENPYLFNGDFVDRGSFSVEIILTLFAFKCMCPSSIYLARGNHESKSMNKIYGFEGEVRSKLSEKFVDLFAEVFCYLPLAHVINGKVFVVHGGLFSVDGVKLSDIRAIDRFCEPPEEGLMCELLWSDPQPLPGRGPSKRGVGLSFGGDVTKRFLQDNNLDLLVRSHEVKDEGYEVEHDGKLITVFSAPNYCDQMGNKGAFIRFEAPDMKPNIVTFSAVPHPDVKPMAYANNFLRMFN
- beta-galactosidase activity in Miller units (quantitative yeast two-hybrid) [3]: showed a remarkable reduction in the activity of interaction with phytochromes
- beta-galactosidase activity in Miller units (quantitative yeast two-hybrid) [4]: showed a remarkable reduction in the activity of interaction with phytochromes
